Results from the supplement of paper PMC9732359.
± gives the uncertainty stated by the source.

Experiment: protein stability index of a GFP-peptide fusion (yeast GPS) (PSI 1-4); higher = more stable; sorted into four equal gates, so the index is relative within each strain
How it was run: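 The protein stability index of a peptide was calculated by multiplying its read frequency in each gate by that gate's number and adding the products. The peptides were tiled 17-residue stretches of yeast proteins, fused downstream of GFP on a Cherry-expressing plasmid and carried in yeast as a pooled library. Mid-log cultures in leucine-free medium were sorted into four equal gates by GFP/Cherry ratio, and each gate's plasmids were PCR-amplified and Illumina-sequenced.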

| Sequence | protein stability index (doa10∆) | protein stability index (pdr5∆) | protein stability index (san1∆) | protein stability index (ubr1∆) |
| --- | --- | --- | --- | --- |
| TFLPPLLLKLASPHASV [ECM29] | 1.63 ± 0.039 | 1.8 ± 0.04 | 1.66 ± 0.061 | 1.41 ± 0.027 |
| TGAGVSTSLGIPDFRSS [SIR2] | 2.19 ± 0.079 | 2.51 ± 0.082 | 2.1 ± 0.19 | 2.86 ± 0.078 |
| TGAPPYYYNTKIYKLEN [YMR129W/POM152] | 2.8 ± 0.063 | 2.72 ± 0.064 | 2.5 ± 0.11 | 3.17 ± 0.041 |
| TGDADEPELRVLSTEEI [RPO21] | 3.59 ± 0.13 | 3.25 ± 0.099 | 3.49 ± 0.064 | 3.43 ± 0.06 |
| TGLKLYSRITLIIDDPS [RPP1] | 2.22 ± 0.065 | 2.8 ± 0.077 | 2.17 ± 0.062 | 2.75 ± 0.086 |
| TGNGTTTTSNTSGTNIA [YOR098C/NUP1] | 2.96 ± 0.045 | 2.69 ± 0.047 | 2.46 ± 0.056 | 2.41 ± 0.035 |
| TGNTTSKSAFSFGTANT [YOR098C/NUP1] | 2.5 ± 0.064 | 2.72 ± 0.058 | 1.95 ± 0.076 | 2.75 ± 0.056 |
| TGQNFLTSNISSLVRSC [REC8] | 3.21 ± 0.12 | 2.78 ± 0.08 | 2.54 ± 0.099 | 2.96 ± 0.091 |
| TGRMRYLKHVSRRFKNG [RPL37A] | 2.67 ± 0.059 | 3.25 ± 0.042 | 3.44 ± 0.048 | 3.38 ± 0.047 |
| TGSDREVQRILIELLTQ [RPT3] | 3.02 ± 0.14 | – | – | 3.5 ± 0.23 |
| TGTARLNSMPNNVNEYS [YJL039C/NUP192] | 2.82 ± 0.1 | 2.74 ± 0.085 | 3.01 ± 0.052 | 2.89 ± 0.056 |
| THKVTDIYSHEYKVITS [YMR129W/POM152] | 1.71 ± 0.065 | 1.97 ± 0.082 | 2.38 ± 0.089 | 2.13 ± 0.064 |
| THQSPPPPPQQSQPIAN [SNF5] | 3.01 ± 0.057 | 3.07 ± 0.043 | 2.98 ± 0.04 | 2.94 ± 0.046 |
| THSYNFMRQNLEWNMAN [RPC82] | 2.45 ± 0.064 | 1.75 ± 0.057 | 1.74 ± 0.07 | 2.24 ± 0.048 |
| TIDWVEAGLQLCRQGHN [PRP8] | 2.08 ± 0.18 | 2.77 ± 0.1 | 2.08 ± 0.091 | 2.26 ± 0.085 |
| TIETFNEAALVVNITHH [RPB5] | 1.69 ± 0.11 | 1.92 ± 0.061 | 1.64 ± 0.16 | 1.58 ± 0.13 |
| TIFKSGEIDFIKNIGKS [YML103C/NUP188] | 1.64 ± 0.069 | 2.37 ± 0.061 | 1.92 ± 0.12 | 2.51 ± 0.073 |
| TIKISTNDDSIKNLTVQ [RGR1] | 2.88 ± 0.13 | 3.05 ± 0.1 | 2.9 ± 0.074 | 2.96 ± 0.14 |
| TISSLFVQLCEMGYLIQ [RPC82] | 1.85 ± 0.061 | 1.69 ± 0.078 | 1.61 ± 0.16 | 2.39 ± 0.081 |
| TITDLIEQGIPKHSYLS [SIR4] | 3.05 ± 0.059 | 3.16 ± 0.06 | 3.21 ± 0.073 | 3.17 ± 0.043 |
| TIVNDSNYDWLFQLLNA [RPN9] | 2.34 ± 0.074 | 2.58 ± 0.077 | 2.34 ± 0.078 | 2.61 ± 0.048 |
| TKCSTVVKASELDQFWQ [SRP14] | 2.17 ± 0.041 | 2.14 ± 0.047 | 2.04 ± 0.082 | 1.72 ± 0.03 |
| TKEKVNGASVPINLHPS [RPL26A] | 2.54 ± 0.067 | 2.73 ± 0.078 | 2.92 ± 0.07 | 2.93 ± 0.064 |
| TKENGDFTLPEDFAPLL [PRP8] | – | 2.78 ± 0.18 | – | 3.2 ± 0.1 |
| TKESQPTIEEDLTRVYK [FAS2] | 3.46 ± 0.12 | 3.32 ± 0.094 | 3.2 ± 0.07 | 3.48 ± 0.091 |
| TKFQTTDRESYPRLQDP [YCS4] | 3 ± 0.072 | 3.15 ± 0.055 | 3.13 ± 0.079 | 3.05 ± 0.074 |
| TKIGAKRIHSVRTRGGN [RPS8A] | 2.84 ± 0.15 | 3.05 ± 0.11 | 2.93 ± 0.088 | 2.72 ± 0.12 |

| Sequence | protein stability index (doa10∆) | protein stability index (pdr5∆) | protein stability index (san1∆) | protein stability index (ubr1∆) |
| --- | --- | --- | --- | --- |
| TKIPQIGDKFASRHGQK [RPB2] | 1.57 ± 0.073 | 2.3 ± 0.07 | 2.77 ± 0.084 | 1.83 ± 0.039 |
| TKNGTPNPNNMKTVQSP [GAL11] | 2.96 ± 0.086 | 2.92 ± 0.081 | 2.77 ± 0.062 | 2.91 ± 0.066 |
| TKNLSILTSKVNAIKNE [DSN1] | 1.66 ± 0.076 | 2.13 ± 0.056 | 2.39 ± 0.11 | 1.69 ± 0.06 |
| TKPGVYYVPYSKLMPVL [RPC82] | 1.54 ± 0.059 | 1.59 ± 0.049 | 1.91 ± 0.067 | 1.96 ± 0.09 |
| TKSHNTVQSWLCDLFVN [NUT1] | 1.55 ± 0.036 | 1.46 ± 0.044 | 1.4 ± 0.09 | 1.54 ± 0.037 |
| TKSMVKIAEQYSKRIEE [RPN11] | 2.32 ± 0.075 | 1.94 ± 0.052 | 2.03 ± 0.1 | 2.28 ± 0.067 |
| TLAEVKAAGLTAAYART [RPL13A] | 1.38 ± 0.11 | 1.89 ± 0.097 | 1.5 ± 0.12 | 1.54 ± 0.061 |
| TLDKPNAEATKEEFSSA [CSE2] | 2.99 ± 0.11 | 3.12 ± 0.1 | 3.23 ± 0.064 | 3.13 ± 0.069 |
| TLDRNTAAETFKLFNKY [RPL8A] | 3.03 ± 0.088 | 3.19 ± 0.068 | 3.08 ± 0.082 | 2.94 ± 0.066 |
| TLELESFLEGSKALNSI [RGR1] | 2.54 ± 0.066 | 2.16 ± 0.067 | 3.13 ± 0.066 | 2.9 ± 0.078 |
| TLIKKKQDEKKSSELEL [SMC2] | 3.24 ± 0.076 | 3.37 ± 0.071 | 3.29 ± 0.047 | 3.05 ± 0.046 |
| TLIVNTDVEKSDPAAKK [SRP21] | – | 3.13 ± 0.3 | – | 3.7 ± 0.16 |
| TLKDYQIKGLQWMVSLF [SNF2] | 3.01 ± 0.1 | 2.54 ± 0.11 | 3.22 ± 0.078 | 2.76 ± 0.1 |
| TLKLRARQRGKLKKSEE [SRP68] | 3.44 ± 0.15 | 3.27 ± 0.11 | 3.36 ± 0.067 | 3.67 ± 0.21 |
| TLLARAVAHHTDCKFIR [RPT6] | 3.09 ± 0.11 | 3.03 ± 0.076 | 1.86 ± 0.14 | 2.23 ± 0.15 |
| TLLESNLCKIIEPFECV [RPN6] | 2.26 ± 0.085 | 2.81 ± 0.12 | 2.28 ± 0.12 | 2.88 ± 0.16 |
| TLLNFVSNNVLRRLEIL [ECM29] | 1.63 ± 0.1 | 1.92 ± 0.29 | 2.28 ± 0.19 | 2.48 ± 0.12 |
| TLQDIGFYQIKKIVDSK [YMR129W/POM152] | 2.64 ± 0.095 | 2.68 ± 0.1 | 2.89 ± 0.17 | 2.97 ± 0.12 |
| TLTELKDALSNSILSVR [SRB2] | 3.29 ± 0.068 | 3.38 ± 0.082 | 3.21 ± 0.049 | 3.37 ± 0.09 |
| TMEVKSFPILDQCVGQV [YMR129W/POM152] | 2.19 ± 0.09 | 3.08 ± 0.11 | 2.34 ± 0.13 | 2.69 ± 0.06 |
| TNAKLPNVDLVTALEVL [RGR1] | 2.09 ± 0.089 | 2.28 ± 0.052 | 2.44 ± 0.07 | 2.26 ± 0.061 |
| TNDRLNREAATKEVESN [DIS3] | 2.79 ± 0.14 | 2.58 ± 0.096 | 2.62 ± 0.12 | 3.1 ± 0.1 |
| TNRHTLALETVLIKMVK [SIR3] | 2.84 ± 0.11 | 2.86 ± 0.072 | 2.61 ± 0.069 | 2.88 ± 0.054 |
| TNSPQISVTRQVVLGGT [SMC2] | 2.82 ± 0.078 | 3 ± 0.075 | 3.03 ± 0.064 | 2.67 ± 0.048 |
| TNTSKQFQKARNNVMLL [SRB8] | 2.65 ± 0.14 | 3 ± 0.066 | 2.94 ± 0.06 | 2.92 ± 0.083 |
| TPATIVKKPTFTFGQST [YOR098C/NUP1] | 2.84 ± 0.066 | 3.13 ± 0.074 | 3.09 ± 0.058 | 3.43 ± 0.075 |
| TPDANLISKPAKKNNFI [UBP6] | 3.12 ± 0.16 | 3.05 ± 0.1 | 3.15 ± 0.12 | 3.21 ± 0.12 |
